The chains are these.
B1: TAZ2 (residues 1723-1812 of p300 with four stabilizing mutations) (domain or fragment, human, UniProt Q09472 1723-1812, looked up)
chain: ATQSPGDSRRLSIQRAIQSLVHAAQCRNANCSLPSCQKMKRVVQHTKGCKRKTNGGCPICKQLIALAAYHAKHCQENKCPVPFCLNIKQK
B2: MITF_(117-135) peptide, Ile120 mutated to alanine (peptide, UniProt O75030-9 117-135, looked up)
peptide: DDVADDIISLESSYNEEIL
B3: MITF_(117-135) peptide, Ile123 mutated to alanine (peptide, UniProt O75030-9 117-135, looked up)
peptide: DDVIDDAISLESSYNEEIL
B4: MITF_(117-135) peptide, Asp121 mutated to alanine (peptide, UniProt O75030-9 117-135, looked up)
peptide: DDVIADIISLESSYNEEIL
B5: MITF_(117-135) peptide, Ser125 mutated to alanine (peptide, UniProt O75030-9 117-135, looked up)
peptide: DDVIDDIIALESSYNEEIL
B6: MITF_(117-135) peptide, Ile124 mutated to alanine (peptide, UniProt O75030-9 117-135, looked up)
peptide: DDVIDDIASLESSYNEEIL
B7: MITF_(117-135) peptide, Leu126 mutated to alanine (peptide, UniProt O75030-9 117-135, looked up)
peptide: DDVIDDIISAESSYNEEIL
B8: MITF_(117-135) peptide, Asp117 mutated to alanine (peptide, UniProt O75030-9 117-135, looked up)
peptide: ADVIDDIISLESSYNEEIL
B9: MITF_(117-135) peptide, Asp118 mutated to alanine (peptide, UniProt O75030-9 117-135, looked up)
peptide: DAVIDDIISLESSYNEEIL
B10: MITF_(117-135) peptide, Val119 mutated to alanine (peptide, UniProt O75030-9 117-135, looked up)
peptide: DDAIDDIISLESSYNEEIL
B11: MITF_(117-135) peptide, Asp122 mutated to alanine (peptide, UniProt O75030-9 117-135, looked up)
peptide: DDVIDAIISLESSYNEEIL
B12: MITF_(117-135) peptide, Glu127 mutated to alanine (peptide, UniProt O75030-9 117-135, looked up)
peptide: DDVIDDIISLASSYNEEIL
B13: TAZ1 (residues 346-440 of CBP) (domain or fragment)
chain: not shown

For the first assay, the target named is T1, GB1-MITF_(81-204) Δ123-127 (UniProt O75030-9 81-204, Δ123-127).
T1 sequence (looked up): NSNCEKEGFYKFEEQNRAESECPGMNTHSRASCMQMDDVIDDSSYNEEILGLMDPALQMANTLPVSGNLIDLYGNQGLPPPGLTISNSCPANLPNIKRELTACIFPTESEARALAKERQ
In words: pull-down.
On to B1, for which the binding result is given as “binds”.

The next assay deals with T2, GB1-TAZ2 (human, UniProt Q09472 1723-1812, C1738A | C1746A | C1789A | C1790A).
T2 sequence (looked up): B1 chain
In words: peptide or protein array.
In the case of B2, the binding result is listed as “binds”.
On the same count and under the same terms, in the case of B3 it was “binds”.
Still for that read-out and setting: for B4 the value was “binds”.
Still for that read-out and setting: in the case of B5 it was “binds”.
On to B6, for which the binding result is given as “binds”.
Same read-out and setting: in the case of B7 it was “binds”.
The same measure, in the same setting: for B8 the value was “binds”.
Consider B9, for which the binding result is on record as “binds”.
Still for that read-out and setting: in the case of B10 it was “binds”; in that of B11, “binds”.
On the same count and under the same terms, in the case of B12 it was “binds”.

Another assay concerns the target T3, MITF_(81-204) (UniProt O75030-9 81-204).
T3 sequence (looked up): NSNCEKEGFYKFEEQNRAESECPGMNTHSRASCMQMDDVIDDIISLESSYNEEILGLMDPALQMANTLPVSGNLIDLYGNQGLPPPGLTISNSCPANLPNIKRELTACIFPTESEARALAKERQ
In words: ITC.
As for B1, the Kd turned out to be 1.24 ± 0.23 µM.
The molecule B13 had a Kd of 6.7 ± 0.5 µM.

The values are drawn from paper doi:10.1101/2022.08.28.505448 (bioRxiv, 2022).
